Laboratory results from patent publication US20240400652A1 (VIR BIOTECHNOLOGY, published 2024).

B1: SARS-CoV-2 S315 (antibody, V domains shown)
VH: EVQLVESGGGLVQPGGSLRLSCAASGFTFSNYWMTWVRQAPGKGLEWVANIKQDGSEKYYVDSVKGRFTISRDNAKNSLYLQMNSLRAEDTAVYYCARDLWWNDQAHYYGMDVWGQGTTVTVSS
VL: SYELTQPPSVSVSPGQTARITCSGDAFPNQYAYWYQQKPGQAPVMLIYKDSERPSGIPERFFGSSSGTTVTLTIRGVQAEDEADYYCQSADSSGTVFGGGTKLTVL
B2: SARS-CoV-2 S304 (antibody, V domains shown)
VH: EVQLVESGGGLVQPGGSLRLSCAASGFTFSSYDMHWVRQTTGKGLEWVSTIGTAGDTYYPDSVKGRFTISREDAKNSLYLQMNSLRAGDTAVYYCARGDSSGYYYYFDYWGQGTLLTVSS
VL: DIQMTQSPSSLSAAVGDRVTITCRASQSIGSYLNWYQQKPGKAPKLLIYAASSLQSGVPSRFSGSGSGTDFTLTISSLQPEDFAIYYCQQSYVSPTYTFGPGTKVDIK

Molecular target: SARS-CoV-2 Spike protein on pseudotyped virus (SARS-CoV-2, UniProt P0DTC2 14-1273)
Experiment: cell-based or functional assay

Row | Binder | IC50, neutralization of SARS-CoV-2pp, DBT-ACE2 cells (further assays) [µg/mL] | IC50, neutralization of SARS-CoV-2pp, DBT-ACE2 cells [µg/mL]
1 | B1 | 25.1 | –
2 | B2 | – | ~17
